Reference: patent US20090298178A1, “GROWTH FACTORS FOR PRODUCTION OF DEFINITIVE ENDODERM” (priority 2008, published 2009)

Columns and labels:
[1] = system: hES cells (CyT49; passage 35); assay: Further differentiation to pancreatic endoderm and endocrine cells, real-time PCR at 10 days (Example 4); type: cell-based, human; conditions: definitive endoderm produced using Wnt3a at 50 or 75 ng/ml or GXV at 10 nM, FIG. 7
Description: Human ES cell cultures were maintained and differentiated substantially as described above in Example 1, and further differentiated to foregut endoderm (stage 2) and then onto pancreatic endoderm and pancreatic endocrine cells (stages 3 and 4). After 48 hours of differentiation to definitive endoderm (stage 1) the cells were briefly washed in PBS+/+ and then further differentiated in RPMI supplemented with 0.2% FBS, Insulin-Transferrin-Selenium (1:1000), Glutamax, penicillin/streptomycin, and 25 ng/mL KGF (R&D Systems) for 3 days. On the first day of stage 2, the culture also received TGF-beta inhibitor No. 4 (3-(6-Methylpyridin-2-yl)-4-(4-quinolyl)-1-phenylthiocarbamoyl-1H-pyrazole) at 2.5 uM (EMD Bioscience). After three days in stage 2 the cells were then differentiated for one day in DMEM with B27 supplement (1:100) containing all-trans retinoic acid (RA) at 0.2 uM and KAAD-cyclopamine at 0.25 uM. Following the single day of retinoid exposure, the cells were cultured in DMEM with B27 (1:100) containing noggin at 40 ng/ml. […]
However, in this instance, the stage 4 noggin treatment lasted for 4 days, as compared to 3 days in Example 2, and replicate samples were taken for real-time PCR analysis at a total of 10 days of differentiation, as compared to 9 days in Example 2.

[2] = system: hES cells (CyT49; passage 35); assay: Differentiation of hES cells to definitive endoderm with activin A plus Wnt3a or GSK3 inhibitors, real-time quantitative PCR at 48 hours (Example 4); type: cell-based, human; conditions: with 100 ng/mL activin A; Wnt3a 25, 50 or 75 ng/mL; GSK3 inhibitor No.15 at 10 nM; FIG. 6A-B
Description: Undifferentiated hES cells (CyT49; passage 35) were maintained substantially as described in Example 1 above. Ten hES cell culture plates were then differentiated in RPMI (Mediatech) supplemented with Glutamax, penicillin/streptomycin, and varying concentrations of defined FBS (HyClone). FBS concentrations were 0% for the first 24 h and 0.2% for the second 24 h. Additionally, 0.1% BSA (Invitrogen/Gibco) was added on the first day only. All plates received 100 ng/mL activin A for both days. […] Replicate samples were collected from each culture condition at 48 hours after differentiation commenced and analyzed for relative gene expression using real-time quantitative PCR.

B1: Wnt3a: Wnt protein (R&D Systems) activating the Wnt signaling pathway (protein, UniProt P56704 19-352, looked up)
Protein Wnt-3a: SYPIWWSLAVGPQYSSLGSQPILCASIPGLVPKQLRFCRNYVEIMPSVAEGIKIGIQECQHQFRGRRWNCTTVHDSLAIFGPVLDKATRESAFVHAIASAGVAFAVTRSCAEGTAAICGCSSRHQGSPGKGWKWGGCSEDIEFGGMVSREFADARENRPDARSAMNRHNNEAGRQAIASHMHLKCKCHGLSGSCEVKTCWWSQPDFRAIGDFLKDKYDSASEMVVEKHRESRGWVETLRPRYTYFKVPTERDLVYYEASPNFCEPNPETGSFGTRDRTCNVSSHGIDGCDLLCCGRGHNARAERRREKCRCVFHWCCYVSCQECTRVYDVHTCK
For B1, the “abundance of pancreatic endoderm and endocrine cell types (PDX1, PTF1A, NKX6-1 and NKX2-2 induction)” value [1] was “much greater abundance” and the “expression levels of SOX17 and FOXA2 at 48 hours of differentiation as compared to the other GSK inhibitors” value [2] was “substantially higher”.
